Laboratory results published in the supplement of paper PMC10567573.

B1: FANCE (parent)
chain: AQVLMLGQILELPWKEETFLVLQS
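Also: lentivirally expressed fusions sorted by FACS into six bins by GFP to DsRed ratio, PSI derived from sequencing read proportions per bin multiplied by bin number.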

Variants of: B1
Test: protein stability index of a GFP-peptide fusion (GPS, HEK-293T) (PSI 1-6); higher = more stable
Conditions: c terminus: a fixed tail appended
In the case of AQVLMLGQILELPWKEETFLVEQS [L22E], the protein stability index is reported as 2.
Variant AQVLMLGQILELPWKEETFLVKQS [L22K] has a protein stability index of 2.14.
Work on AQVLMLGQILELPEKEETFLVLQS [W14E] yielded a protein stability index of 2.01.
Variant AQVLMLGQILELPLKEETFLVLQS [W14L] has a protein stability index of 2.21.
AQVLMLGQILELPPKEETFLVLQS [W14P] gave a protein stability index of 1.83.
AQVLMLGQILELPSKEETFLVLQS [W14S] gave a protein stability index of 3.07.
Variant AQVLMLGQILELPFKEETFLVLQS [W14F] has a protein stability index of 2.72.
Work on AQVLMLGQILELPKKEETFLVLQS [W14K] yielded a protein stability index of 1.96.
For AEVLMLGQILELPWKEETFLVLQS [Q2E], the protein stability index was 2.48.
For AIVLMLGQILELPWKEETFLVLQS [Q2I], the protein stability index was 3.13.
For ASVLMLGQILELPWKEETFLVLQS [Q2S], the protein stability index was 2.87.
Variant AQVLMLGQILELPWKEETFLVLPS [Q23P] has a protein stability index of 3.09.
For AQVLMLGQILELPWKEETFLVLAS [Q23A], the protein stability index was 3.11.
AQVLMLGQILELPWKEETFLVLKS [Q23K] showed a protein stability index of 3.22.
AQVLMLGQILELPWKEETFLVLMS [Q23M] gave a protein stability index of 2.95.
Variant AQVLMLGQILELPWKEETFLVLTS [Q23T] has a protein stability index of 2.41.
Work on AQVLMLGQILELPWKEETFLVLDS [Q23D] yielded a protein stability index of 1.78.
Variant AQVLMLGQILELYWKEETFLVLQS [P13Y] has a protein stability index of 2.88.
With AQVLMLGQILELIWKEETFLVLQS [P13I] the protein stability index was 2.77.
Variant AQVLMLGQILELDWKEETFLVLQS [P13D] has a protein stability index of 2.95.
AQVLMLGQILELWWKEETFLVLQS [P13W] gave a protein stability index of 3.76.
In the case of AQVLMLGQILPLPWKEETFLVLQS [E11P], the protein stability index is reported as 3.01.
AQVLMLGQILYLPWKEETFLVLQS [E11Y] gave a protein stability index of 3.17.
Work on AQVLMLGQILRLPWKEETFLVLQS [E11R] yielded a protein stability index of 2.01.
AQVLMLGQILHLPWKEETFLVLQS [E11H] showed a protein stability index of 1.11.
Variant AQVLMLGQILMLPWKEETFLVLQS [E11M] has a protein stability index of 5.04.
For CQVLMLGQILELPWKEETFLVLQS [A1C], the protein stability index was 2.51.
With NQVLMLGQILELPWKEETFLVLQS [A1N] the protein stability index was 2.31.
Variant QQVLMLGQILELPWKEETFLVLQS [A1Q] has a protein stability index of 2.4.
VQVLMLGQILELPWKEETFLVLQS [A1V] gave a protein stability index of 3.34.
AQVLMLGQELELPWKEETFLVLQS [I9E] showed a protein stability index of 1.63.
With AQVLMLGQNLELPWKEETFLVLQS [I9N] the protein stability index was 1.7.
In the case of AQVLMLGQHLELPWKEETFLVLQS [I9H], the protein stability index is reported as 2.26.
AQVLMLGQQLELPWKEETFLVLQS [I9Q] gave a protein stability index of 1.68.
Work on AQVLMLGQALELPWKEETFLVLQS [I9A] yielded a protein stability index of 3.41.
AQVLMLGQILELPWKEETFLELQS [V21E] gave a protein stability index of 2.57.
Work on AQVLMLGQILELPWKEETFLKLQS [V21K] yielded a protein stability index of 2.9.
AQVLMLGQILELPWKEETFLWLQS [V21W] gave a protein stability index of 2.4.
AQVLMLGQILELPWKEETFLHLQS [V21H] gave a protein stability index of 1.77.
For AQVLMLGQILELPWKEETFLDLQS [V21D], the protein stability index was 2.08.
With AQVLMLGQILELPWKEETFLPLQS [V21P] the protein stability index was 2.17.
Variant AQVLMLGQILELPWDEETFLVLQS [K15D] has a protein stability index of 2.01.
Work on AQVLMLGQILELPWVEETFLVLQS [K15V] yielded a protein stability index of 5.16.
For AQVLMLGQILELPWQEETFLVLQS [K15Q], the protein stability index was 1.47.
Work on AQVLMLGQILELPWHEETFLVLQS [K15H] yielded a protein stability index of 3.52.
In the case of AQVLMLGQILELPWTEETFLVLQS [K15T], the protein stability index is reported as 3.16.
For AQVLMLGQILELPWAEETFLVLQS [K15A], the protein stability index was 2.06.
With AQVLMLGQILEPPWKEETFLVLQS [L12P] the protein stability index was 4.52.
With AQVLMLGQILEWPWKEETFLVLQS [L12W] the protein stability index was 2.1.
AQVLMLGQILESPWKEETFLVLQS [L12S] showed a protein stability index of 2.69.
With AQVLMLGQILEEPWKEETFLVLQS [L12E] the protein stability index was 2.39.
In the case of AQVLMLGQILEQPWKEETFLVLQS [L12Q], the protein stability index is reported as 2.95.
Work on AQVLMLGQILEHPWKEETFLVLQS [L12H] yielded a protein stability index of 2.4.
AQVHMLGQILELPWKEETFLVLQS [L4H] gave a protein stability index of 1.66.
Variant AQVTMLGQILELPWKEETFLVLQS [L4T] has a protein stability index of 2.7.
Variant AQVSMLGQILELPWKEETFLVLQS [L4S] has a protein stability index of 2.
Variant AQVCMLGQILELPWKEETFLVLQS [L4C] has a protein stability index of 3.01.
AQVNMLGQILELPWKEETFLVLQS [L4N] gave a protein stability index of 2.04.
Work on AQVDMLGQILELPWKEETFLVLQS [L4D] yielded a protein stability index of 3.76.
AQVMMLGQILELPWKEETFLVLQS [L4M] showed a protein stability index of 3.29.
AQVGMLGQILELPWKEETFLVLQS [L4G] showed a protein stability index of 2.25.
AQVLMLGQILELPWKEEQFLVLQS [T18Q] gave a protein stability index of 2.45.
Variant AQVLMLGQILELPWKEERFLVLQS [T18R] has a protein stability index of 4.64.
Variant AQVLMLGQILELPWKEEDFLVLQS [T18D] has a protein stability index of 1.84.
Work on AQVLMLGQILELPWKEESFLVLQS [T18S] yielded a protein stability index of 2.84.
AQVLMLGQILELPWKEEHFLVLQS [T18H] showed a protein stability index of 3.02.
AQVLMLGQILELPWKEEAFLVLQS [T18A] showed a protein stability index of 1.7.
Variant AQVLMLGQILELPWKEEFFLVLQS [T18F] has a protein stability index of 3.58.
With AQVLMLGMILELPWKEETFLVLQS [Q8M] the protein stability index was 2.39.
For AQVLMLGSILELPWKEETFLVLQS [Q8S], the protein stability index was 2.42.
AQVLMLGGILELPWKEETFLVLQS [Q8G] gave a protein stability index of 4.12.
With AQVLMLGTILELPWKEETFLVLQS [Q8T] the protein stability index was 2.34.
For AQVLMLGHILELPWKEETFLVLQS [Q8H], the protein stability index was 2.57.
With AQVLMLGYILELPWKEETFLVLQS [Q8Y] the protein stability index was 3.2.
For AQVLMLGQINELPWKEETFLVLQS [L10N], the protein stability index was 1.88.
With AQVLMLGQIGELPWKEETFLVLQS [L10G] the protein stability index was 2.19.
Work on AQVLMLGQIAELPWKEETFLVLQS [L10A] yielded a protein stability index of 1.81.
AQVLMLGQIPELPWKEETFLVLQS [L10P] showed a protein stability index of 2.35.
For AQVLMLGQIFELPWKEETFLVLQS [L10F], the protein stability index was 3.56.
In the case of AQVLMLGQILELPWKENTFLVLQS [E17N], the protein stability index is reported as 4.33.
In the case of AQVLMLGQILELPWKEVTFLVLQS [E17V], the protein stability index is reported as 4.49.
In the case of AQVLMLGQILELPWKEYTFLVLQS [E17Y], the protein stability index is reported as 5.43.
In the case of AQVLMLGQILELPWKELTFLVLQS [E17L], the protein stability index is reported as 2.23.
Work on AQVLMLGQILELPWKEQTFLVLQS [E17Q] yielded a protein stability index of 3.48.
AQVLMLSQILELPWKEETFLVLQS [G7S] showed a protein stability index of 2.32.
Variant AQVLMLEQILELPWKEETFLVLQS [G7E] has a protein stability index of 3.09.
Work on AQVLMLFQILELPWKEETFLVLQS [G7F] yielded a protein stability index of 2.22.
With AQVLMLGQILELPWKEETFLVLQR [S24R] the protein stability index was 2.69.
Variant AQVLMLGQILELPWKEETFLVLQH [S24H] has a protein stability index of 2.58.
AQVLMLGQILELPWKEETFLVLQN [S24N] gave a protein stability index of 3.35.
Work on AQVLMLGQILELPWKEETFLVLQD [S24D] yielded a protein stability index of 1.83.
Work on AQVLMLGQILELPWKEETFLVLQK [S24K] yielded a protein stability index of 2.21.
In the case of AQVLMLGQILELPWKEETFLVLQC [S24C], the protein stability index is reported as 2.6.
For AQVLMLGQILELPWKEETFLVLQE [S24E], the protein stability index was 3.98.
